From patent US20240317847A1 (Bayer, published 2024)

T1: murine IL-11 (mouse, UniProt P47873 22-199)
T1 construct: Invigate, e.g. lot #C210819-09; biotinylated where coated in the ELISA; also called mIL-11; mIL11
T1 sequence: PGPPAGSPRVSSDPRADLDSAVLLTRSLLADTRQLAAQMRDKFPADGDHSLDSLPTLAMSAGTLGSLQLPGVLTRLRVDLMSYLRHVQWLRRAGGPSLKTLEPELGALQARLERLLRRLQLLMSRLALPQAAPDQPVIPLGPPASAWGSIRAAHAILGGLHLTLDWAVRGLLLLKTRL

T2: human IL-11 (human, UniProt P20809 22-199)
T2 construct: Invigate recombinant protein; biotinylated when immobilized in the Di-complex ELISA; also called hIL11; hIL-11
T2 sequence: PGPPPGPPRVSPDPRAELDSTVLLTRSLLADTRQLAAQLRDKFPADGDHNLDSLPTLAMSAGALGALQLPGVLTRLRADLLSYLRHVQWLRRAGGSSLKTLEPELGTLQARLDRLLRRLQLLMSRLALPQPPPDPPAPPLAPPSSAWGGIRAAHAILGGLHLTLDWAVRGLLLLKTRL

T3: murine IL-11 (mouse, UniProt P47873 22-199)
T3 construct: Invigate recombinant protein; biotinylated when immobilized in the Di-complex ELISA; also called mIL11; mIL-11
T3 sequence: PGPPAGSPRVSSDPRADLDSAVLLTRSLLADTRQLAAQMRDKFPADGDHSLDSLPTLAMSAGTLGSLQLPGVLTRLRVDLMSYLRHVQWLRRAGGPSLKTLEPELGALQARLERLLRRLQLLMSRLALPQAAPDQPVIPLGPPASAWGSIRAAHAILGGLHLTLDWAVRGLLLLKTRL

T4: murine IL-11 (Invigate, e.g., lot #C210819-09) (mouse, UniProt P47873 22-199)
T4 construct: Bought protein; biotinylated where captured on streptavidin plates; also called mIL-11; mIL11
T4 sequence: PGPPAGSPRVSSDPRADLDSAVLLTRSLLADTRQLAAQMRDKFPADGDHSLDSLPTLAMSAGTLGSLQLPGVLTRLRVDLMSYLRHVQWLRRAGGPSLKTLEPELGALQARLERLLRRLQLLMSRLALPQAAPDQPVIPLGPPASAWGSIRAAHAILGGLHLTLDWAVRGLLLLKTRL


Key:
murine IL-11 [1] = biological target: T1, murine IL-11; experiment: Di-complex ELISA, competitor canine IL11RA-Fc on coated IL-11;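 for Efficacy (%): signal drop relative to signal at lowest antibody concentration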
human IL-11 [2] = biological target: T2, human IL-11; experiment: Tri-complex ELISA, hIL-11 + mIL-11Ra-Fc + hgp130-Fc, inhibition of complex formation
Experimental: (§1) In the Tri-complex ELISA format IL-11 antibodies are tested for their ability to inhibit the formation of a complex consisting of murine or human gp130-Fc fusion protein, with murine or human IL-11, and a murine IL11RA-Fc fusion protein. The assay format was adapted according to FIG. 18 (a, b), depending on whether murine or human IL-11 IgG antibodies were tested.
(§2) Bispecific antibodies were subjected to the experimental assay procedure described in Example 19 and IC50 [M], respectively efficacy (%) were calculated accordingly.

murine IL-11 [3] = biological target: T3, murine IL-11; experiment: Di-complex ELISA, murine IL11RA-Fc binding to immobilized mIL-11, competition
Experimental: (§3) In the Di-complex ELISA format anti IL-11 antibodies are tested for the ability to interfere with the formation of complexes consisting of immobilized murine IL-11 (Invigate, e.g., lot #C210819-09) or human IL-11 (Invigate, e.g., lot #C121021-19), and murine IL11RA-Fc fusion proteins or canine IL11RA-human-Fc fusion protein (FIG. 17a, b).
Bispecific antibodies were subjected to the experimental assay procedure described in Example 18 and IC50 [M], respectively efficacy (%) were calculated accordingly.

murine IL-11 [4] = biological target: T3, murine IL-11; experiment: Tri-complex ELISA, mIL-11 + mIL-11Ra-Fc + mgp130-Fc, inhibition of complex formation
Experimental: as §1, §2

human IL-11 [5] = biological target: T2, human IL-11; experiment: Di-complex ELISA, murine IL11RA-Fc binding to immobilized hIL-11, competition
[6] = biological target: T4, murine IL-11 (Invigate, e.g., lot …); experiment: Di-complex ELISA: biotinylated murine IL-11 on streptavidin plate, antibody titrated against 2 nM canine IL11RA-human-Fc (competitor)
Experimental: as §3
The assay is performed using streptavidin coated microtiter plates (Greiner bio-one, #781997). In a first step, 10 nM biotinylated mouse IL-11 (Invigate, Germany, e.g., lot #C210819-09) or human IL-11 (Invigate, Germany, e.g., lot #C121021-19) is coated in 25 μl PBS on the plate at 4° C. overnight. Next day, the plate is washed three times with 50 μl PBST and then blocked with 50 μl SmartBlock (Candor, #113125) for one hour at room temperature (RT). After additional three washes with PBST, 25 μl of a mixture of the murine anti IL-11 antibody and recombinant canine IL11RA-Fc fusion protein (Sino Biological, #70078-D02H) in PBS-T, 10% Smartblock are added simultaneously to the plate and incubated for one hour at RT. […] After three additional washes with PBS-T, 25 μl anti-human-POD (Sigma, #A0170) in PBS-T, 10% Smartblock is added and incubated for 1 hour at RT. After a final three washes with PBS-T, 25 μl AmplexRed (Fisher Scientific, A12222), 1/1000 in PBS, 0,003% H₂O₂, is added as substrate and incubated for 15 min at RT in the dark. Then, the fluorescence is measured with a plate reader at 535/595 nm. Signals from dose responses were used to calculate IC50 values (GraphPad Prism). Efficacy was calculated as [(signal measured at lowest antibody concentration−signal measured at the highest antibody concentration)×100] divided by (signal measured at lowest antibody concentration−signal measured in the absence of IL11Ra).

Row | Efficacy (%) (human IL-11 [2]) | IC50 (human IL-11 [2]) [nM] | Efficacy (%) (murine IL-11 [4]) | IC50 (murine IL-11 [4]) [nM] | Efficacy (%) [6] [%] | Binder | also measured
1 |  |  |  |  |  | TPP-18068 (antibody, mouse IgG1, mIgG1, Lambda) heavy: EVQLLESGGGLVQPGGSLRLSCAASGFTFSSYGMHWVRQAPGKGLEWVSVISYDGSYKYYADSVKGRFTISRDNSKNTLYLQMNSLRAEDTAVYYCAAGVPDYWGQGTLVTVSSAKTTPPSVYPLAPGSAAQTNSMVTLGCLVKGYFPEPVTVTWNSGSLSSGVHTFPAVLQSDLYTLSSSVTVPSSTWPSETVTCNVAHPASSTKVDKKIVPRDCGCKPCICTVPEVSSVFIFPPKPKDVLTITLTPKVTCVVVDISKDDPEVQFSWFVDDVEVHTAQTQPREEQFNSTFRSVSELPIMHQDWLNGKEFKCRVNSAAFPAPIEKTISKTKGRPKAPQVYTIPPPKEQMAKDKVSLTCMITDFFPEDITVEWQWNGQPAENYKNTQPIMDTDGSYFVYSKLNVQKSNWEAGNTFTCSVLHEGLHNHHTEKSLSHSPGK light: QSVLTQPPSASGTPGQRVTISCTGSSSNIGAGYDVHWYQQLPGTAPKLLIYSNNERPSGVPDRFSGSKSGTSASLAISGLRSEDEADYYCAAWDDSLNGPVFGGGTKLTVLGQPKSSPSVTLFPPSSEELETNKATLVCTITDFYPGVVTVDWKVDGTPVTQGMETTQPSKQSNNKYMASSYLTLTARAWERHSSYSCQVTHEGHTVEKSLSRADCS | Efficacy (%) (murine IL-11 [1]): 64.2%; IC50 (murine IL-11 [1]): 2.9 nM
2 | 104 | 1.6 | 104 | 0.0622 |  | TPP-29697 (bispecific antibody, IgG1, scFv-kih-hIgG1 with Fc-silencing mutations; bispecific comprising CDRs of TPP-29528 and TPP-29519) chain 1: QVQLVESGGGVVQPGRSLRLSCAASGFTFSHYDMHWVRQAPGKGLEWVAVISYHGSVKFYADSVKGRFTISRDNSKNTLYLQMNSLRAEDTAVYYCARTPGFHFDYWGQGTLVTVSSGGGGSGGGGSGGGGSQSVLTQPPSASGTPGQRVTISCSGSSSNIGSNYVSWYQQLPGTAPKLLIYYDDLRPSGVPDRFSGSKSGTSASLAISGLRSEDEADYYCSAWDDSLSGVVFGGGTKLTVLGGGGSGGGGSGGGGSGVECPPCPAPPVAGPSVFLFPPKPKDTLMISRTPEVTCVVVGVSHEDPEVKFNWYVDGVEVHNAKTKPREEQYNSTYRVVSVLTVLHQDWLNGKEYKCKVSNKQLPSPIEKTISKAKGQPREPQVYTLPPCRDELTKNQVSLWCLVKGFYPSDIAVEWESNGQPENNYKTTPPVLDSDGSFFLYSKLTVDKSRWQQGNVFSCSVMHEALHNHYTQKSLSLSPGK chain 2: EVQLLESGGGLVQPGGSLRLSCAASGFTFSSYGMHWVRQAPGKGLEWVAVISYDGSYKYYADSVKGRFTISRDNSKNTLYLQMNSLRAEDTAVYYCAAGVPDYWGQGTLVTVSSGGGGSGGGGSGGGGSQSVLTQPPSASGTPGQRVTISCSGSSSNIGSDYDVHWYQQLPGTAPKLLIYSNEERPSGVPDRFSGSKSGTSASLAISGLRSEDEADYYCSAWDSSLSGPVFGGGTKLTVLGGGGSGGGGSGGGGSGVECPPCPAPPVAGPSVFLFPPKPKDTLMISRTPEVTCVVVGVSHEDPEVKFNWYVDGVEVHNAKTKPREEQYNSTYRVVSVLTVLHQDWLNGKEYKCKVSNKQLPSPIEKTISKAKGQPREPQVCTLPPSRDELTKNQVSLSCAVKGFYPSDIAVEWESNGQPENNYKTTPPVLDSDGSFFLVSKLTVDKSRWQQGNVFSCSVMHEALHNHYTQKSLSLSPGK | IC50 (murine IL-11 [3]): 1.4 nM; IC50 (human IL-11 [5]): 1.6 nM
3 |  |  |  |  | 13.4 | TPP-18087 (antibody, mouse IgG1, V domains shown, mIgG1, Lambda) VH: EVQLLESGGGLVQPGGSLRLSCAASGFTFSHYDMNWLRQAPGKGLEWVGVISYDGSNKFYADFVKGRFTISRDNSKNTLYLQMNSLRAEDTAVYYCARTPGSHFDYWGQGTLVTVSS VL: QSVLTQPPSASGTPGQRVTISCSGSSSNIGNNAVNWYQQLPGTAPKLLIYYDDLLPSGVPDRFSGSKSGTSASLAISGLRSEDEADYYCSAWDDSLNGVVFGGGTKLTVLG | 
4 |  |  |  |  | 79 | TPP-19528 (antibody, mouse IgG1, V domains shown, mIgG1, Lambda) VH: EVQLLESGGGLVQPGGSLRLSCAASGFTFSIYAMSWVRQAPGKGLEWVSSISDTGDRTYYADSVKGRFTISRDNSKNTLYLQMNSLRAEDTAVYYCARSNWGSLDYWGQGTLVTVSS VL: QSVLTQPPSASGTPGQRVTISCSGSSSNIGSNYVYWYQQLPGTAPKLLIYYDDLLPSGVPDRFSGSKSGTSASLAISGLRSEDEADYYCAAWDDSLSGRVFGGGTKLTVLG | IC50 [6]: 24 nM
5 | 98.5 | 0.696 | 98.5 | 0.17 |  | TPP-29603 (bispecific antibody, IgG1, scFv-kih-mIgG1; bispecific comprising CDRs of TPP-29528 and TPP-29519) chain 1: QVQLVESGGGVVQPGRSLRLSCAASGFTFSHYDMHWVRQAPGKGLEWVAVISYHGSVKFYADSVKGRFTISRDNSKNTLYLQMNSLRAEDTAVYYCARTPGFHFDYWGQGTLVTVSSGGGGSGGGGSGGGGSQSVLTQPPSASGTPGQRVTISCSGSSSNIGSNYVSWYQQLPGTAPKLLIYYDDLRPSGVPDRFSGSKSGTSASLAISGLRSEDEADYYCSAWDDSLSGVVFGGGTKLTVLGGGGSGGGGSGGGGSGVECPPCPAPPVAGPSVFIFPPKPKDVLTITLTPKVTCVVVDISKDDPEVQFSWFVDDVEVHTAQTQPREEQFNSTFRSVSELPIMHQDWLNGKEFKCRVNSAAFPAPIEKTISKTKGRPKAPQVYTIPPCKEQMAKDKVSLWCMITDFFPEDITVEWQWNGQPAENYKNTQPIMDTDGSYFVYSKLNVQKSNWEAGNTFTCSVLHEGLHNHHTEKSLSHSPGK chain 2: EVQLLESGGGLVQPGGSLRLSCAASGFTFSSYGMHWVRQAPGKGLEWVAVISYDGSYKYYADSVKGRFTISRDNSKNTLYLQMNSLRAEDTAVYYCAAGVPDYWGQGTLVTVSSGGGGSGGGGSGGGGSQSVLTQPPSASGTPGQRVTISCSGSSSNIGSDYDVHWYQQLPGTAPKLLIYSNEERPSGVPDRFSGSKSGTSASLAISGLRSEDEADYYCSAWDSSLSGPVFGGGTKLTVLGGGGSGGGGSGGGGSGVECPPCPAPPVAGPSVFIFPPKPKDVLTITLTPKVTCVVVDISKDDPEVQFSWFVDDVEVHTAQTQPREEQFNSTFRSVSELPIMHQDWLNGKEFKCRVNSAAFPAPIEKTISKTKGRPKAPQVCTIPPPKEQMAKDKVSLSCAITDFFPEDITVEWQWNGQPAENYKNTQPIMDTDGSYFVVSKLNVQKSNWEAGNTFTCSVLHEGLHNHHTEKSLSHSPGK | 
